Patent publication EP0730609B1

Target: recombinant human IL4 (E. coli, non-glycosylated) (human) (UniProt P05112)
Test: cell-based or functional assay

Chain of recombinant human IL4 (E. coli, non-glycosylated) (human) (P05112 25-153 limits assumed): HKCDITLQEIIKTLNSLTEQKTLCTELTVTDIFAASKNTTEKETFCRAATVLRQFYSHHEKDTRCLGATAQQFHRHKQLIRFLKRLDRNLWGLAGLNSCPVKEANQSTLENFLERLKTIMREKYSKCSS

B1: humanized 3B9 (IgG4) (antibody, from another filing, V domains shown)
VH: QVTLRESGPALVKPTQTLTLTCTFSGFSLSTSGMGVSWIRQPPGKGLEWLAHIYWDDDKRYNPSLKSRLTISKDTSRNQVVLTMTNMDPVDTATYYCARRETVFYWYFDVWGRGTPVTVSS
VL: IVMTQSPDSLAVSLGERATINCKASQSVDYDGDSYMNWYQQKPGQPPKLLIYAASNLESGVPDRFSGSGSGTDFTLTISSLQAEDVAVYYCQQSNEDPPRFGGGTKVEIKR
- B cell (inhibition of IL4-stimulated B lymphocyte proliferation), IC50: 0.079 nM
- IgE synthesis (inhibition of IL4-driven IgE secretion), IC50: 0.406 nM
- T cell (inhibition of IL4-stimulated T lymphocyte proliferation), IC50: 0.04 nM
